From patent US20150284438A1 (BIOVALENCE SDN BHD, published 2015)

Key:
[1] = molecular target: T1, DEN2 cNS2B-NS3pro complex (Dengue virus 2 (DEN2 / DENV-2), UniProt P14340 1394-1440; P14340 1476-1660); experiment: cell-based or functional assay
T1 sequence 1: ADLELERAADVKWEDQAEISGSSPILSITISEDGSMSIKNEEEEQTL
T1 sequence 2: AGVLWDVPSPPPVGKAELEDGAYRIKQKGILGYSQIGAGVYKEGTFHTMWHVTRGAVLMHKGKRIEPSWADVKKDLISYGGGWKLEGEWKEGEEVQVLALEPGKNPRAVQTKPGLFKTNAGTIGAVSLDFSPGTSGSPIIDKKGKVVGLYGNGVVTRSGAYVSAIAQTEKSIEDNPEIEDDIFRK

[2] = molecular target: T1, DEN2 cNS2B-NS3pro complex

B1: RetroMAD1 (other)
chain: MGRICRCICGRGICRCICGVPGVGVPGVGGATGSDVNFDLSTATAKTYTKFIEDFRATLPFSHKVYDIPLLYSTISDSRRFILLDLTSYAYETISVAIDVTNVYVVAYRTRDVSYFFKESPPEAYNILFKGTRKITLPYTGNYENLQTAAHKIRENIDLGLPALSSAITTLFYYNAQSAPSALLVLIQTTAEAARFKYIERHVAKYVATNFKPNLAIISLENQWSALSKQIFLAQNQGGKFRNPVDLIKPTGERFQVTNVDSDVVKGNIKLLLNSRASTADENFITTMTLLGESVVEFPWALWKTMLKELGTMALHAGKAALGAAADTISQGTQVPGVGVPGVGKLAAALEHHHHHH
B1 was tested, and the “IC50 of NS2B-NS3 protease inhibition” value [1] was 4.99 µM and the Ki [2] was 2.49 µM.
